The target in this data set is p53 WT (UniProt P04637 P04637:1-393). Kind of data set: EMSA; GST-p53 purified from bacteria. To be noted: tags: GST; chain copies: 4; label: biotin. On the technique in general: Mobility shift assays separate free from complexed probe on a gel.
Sequence of p53 WT (P04637 whole entry, one chain of several): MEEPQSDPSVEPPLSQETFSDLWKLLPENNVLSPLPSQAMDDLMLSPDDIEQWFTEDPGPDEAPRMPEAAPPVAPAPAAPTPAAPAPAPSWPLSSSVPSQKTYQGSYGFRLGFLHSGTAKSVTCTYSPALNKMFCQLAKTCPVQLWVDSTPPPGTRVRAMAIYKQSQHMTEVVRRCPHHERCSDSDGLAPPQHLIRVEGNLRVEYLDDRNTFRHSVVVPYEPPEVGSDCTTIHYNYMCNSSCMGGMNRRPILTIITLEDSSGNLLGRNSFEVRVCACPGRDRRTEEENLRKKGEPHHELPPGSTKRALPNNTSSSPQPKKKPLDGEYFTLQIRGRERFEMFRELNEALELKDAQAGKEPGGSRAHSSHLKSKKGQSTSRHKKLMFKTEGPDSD

Method: For supershift assay, anti-p53 antibodies were added into the cell nuclear extract mixed with the biotin-labeled probes and the mixture were incubated with for 1 hour at room temperature before loading into 6% of non-denatured polyacrylamide gel.

B1: CTNNB1 probe 1 (MP53BS) (dsDNA)
DNA 1: GCCCCCTCGCGCCCCGCCCCTTGTC
DNA 2: GACAAGGGGCGGGGCGCGAGGGGGC
In the case of B1, the binding result is “no binding”.

(Values after US20240190903, “COMPOUNDS FOR PROGRAMMABLE PROTEIN DEGRADATION AND METHODS OF USE FOR THE TREATMENT OF DISEASE” (Mayo Foundation for Medical Education and Research, published 2024).)
